These results are taken from paper PMC5292753, “Structural analysis and evolution of specificity of the SUMO UFD E1-E2 interactions” (Scientific Reports, 2017).

In assay [1] the target is SUMO E2 (Ubc9) (Homo sapiens) (UniProt P63279). As to conditions: cited from earlier work.
Assay [2] shares this target. Briefly: NMR. As to conditions: cited from earlier work.
The target of assay [3] is T1, human SUMO E2 conjugating enzyme Ubc9, full length (human, UniProt P63279 1-158, lysines methylated (borane-dimethylamine complex and formaldehyde), only in the complex that was crystallised).
T1 construct: SUMO-conjugating enzyme Ubc9, human, full length; Cloned in pET28a; the His tag was removed with thrombin, so a few residues of the vector may remain at the N-terminus; The complex with the UFD was lysine-methylated after gel filtration and only then crystallised; also called hSUMO Ubc9; source: E. coli BL21(DE3) pLysS, purified (Ni-NTA, thrombin, Superdex75 gel filtration); not shown: His6, …
T1 sequence (P63279 whole entry): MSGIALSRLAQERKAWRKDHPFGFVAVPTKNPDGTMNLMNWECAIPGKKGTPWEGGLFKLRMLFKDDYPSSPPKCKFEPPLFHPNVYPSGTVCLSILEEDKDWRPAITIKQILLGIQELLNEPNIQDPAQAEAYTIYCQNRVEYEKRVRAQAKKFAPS
Put plainly: native gel or EMSA; native gel electrophoresis of human E1 UFD domain with Ubc9 (Supplementary Fig. S1). Particulars: both partners purified. Background: In EMSA bound probe runs differently from free probe, usually more slowly.

Like-named read-outs stand apart in the source and are kept apart here.

Chain of SUMO E2 (Ubc9) (Homo sapiens) (P63279 2-158): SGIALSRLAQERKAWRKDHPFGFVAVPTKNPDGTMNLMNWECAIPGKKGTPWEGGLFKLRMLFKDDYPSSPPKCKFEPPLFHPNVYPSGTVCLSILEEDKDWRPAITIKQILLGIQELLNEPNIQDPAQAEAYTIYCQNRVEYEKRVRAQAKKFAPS

As usually defined, the Kd is the equilibrium constant for the complex coming apart. For the molecule SUMO E1 UFD UFD (from UniProt Q9UBT2), the Kd in assay [1] was 1.2 µM.
“SUMO E1 Cys domain Cys domain (from UniProt Q9UBT2)”: the Kd in assay [2] was 87 µM.

B1: human SUMO E1 Uba2 ubiquitin-fold domain (UFD), residues 447-547 (domain or fragment, UniProt Q9UBT2 447-547, looked up)
chain: KPEVTVRLNVHKVTVLTLQDKIVKEKFAMVAPDVQIEDGKGTILISSEEGETEANNHKKLSEFGIRNGSRLQADDFLQDYTLLINILHSEDLGKDVEFEVV
modifications: lysines methylated (borane-dimethylamine complex and formaldehyde), only in the complex that was crystallised
notes: designed from the structure of full-length human SAE1-SAE2 (PDB 1Y8Q); Cloned in pET28a; the His tag was removed with thrombin, so a few residues of the vector may remain at the N-terminus; The complex with Ubc9 was lysine-methylated after gel filtration and only then crystallised; the native gel and the gel filtration used the unmethylated protein; also called E1 UFD domain; HsUba2 UFD; source: …
Take B1: the binding result in assay [3] was “binds”.
